Source: patent US10202593B2, “Evolved sortases and uses thereof” (President and Fellows of Harvard College, priority 2013, dated 2019)
Where a chain is given by its changes, count along the chain named. In names and notes the source's numbering stands. Like-named read-outs stand apart in the source and are kept apart here.

B1: 4S.6A: 5mut + N98D A104V A118S F122A K134G I182V E189V (protein)
chain: QAKPQIPKDKSKVAGYIEIPDADIKEPVYPGPATREQLDRGVSFVEENESLDDQNISISGHTAIDRPNYQFTNLGAAKKGSMVYFKVGNETRKYKMTSIRNVKPTAVEVLDEQKGKDKQLTLVTCDDYNVETGVWETRKIFVATEVK
B2: eSrtA(4S-6): round 6 consensus variant targeting LPESG (protein)
chain: B1 chain
B3: 4S.6C: 5mut + N98D A104V A118T F122A K134R I182V E189F (protein)
chain: B1 chain with S59T, G75R, V130F

Key:
[1] = system: LPETG (Abz-LPETGK(Dnp)-CONH2); assay: In vitro sortase kinetics HPLC assay, LPETG substrate; assay type: biochemical; settings: substrate wt (LPETG)
Experimental: (§1) See below for details on sortase expression and purification, and on the synthesis of Abz-LPETGK(Dnp)-CONH2 (SEQ ID NO: 19). […] Reactions were initiated with the addition of enzyme and incubated at 22.5° C. for 3 to 20 minutes before quenching with 0.5 volumes of 1 M HCl. Five to ten nmol of peptide from the quenched reactions were injected onto an analytical reverse-phase Eclipse XDB-C18 HPLC column (4.6×150 mm, 5 μm, Agilent Technologies) and chromatographed using a gradient of 10 to 65% acetonitrile with 0.1% TFA in 0.1% aqueous TFA over 13 minutes. Retention times under these conditions for the Abz-LPETGK(Dnp)-CONH2 (SEQ ID NO: 19) substrate, the released GKDnp peptide, and the Abz-LPETGGG-COOH (SEQ ID NO: 20) product were 12.8, 10.4, and 9.1 min, respectively. To calculate the percent conversion, the ratio of the integrated areas of the Abz-LPETGGG-COOH (SEQ ID NO: 20) and Abz-LPETGK(Dnp)-CONH2 (SEQ ID NO: 19) peptide Abs220 peaks was compared to a standard curve generated by mixing the product and starting peptide in known ratios. To determine […] and Km, reaction rates were fit to the Michaelis-Menten equation using OriginPro 7.0 software. All kinetics values reported represent the average of at least three measurements. Percent conversion was also calculated by using the ratio of the integrated areas of the GK(Dnp)-CONH2 and Abz-LPETGK(Dnp)-CONH2 peptide Abs355 peaks were compared directly (Example 5). To determine kcat and Km, LPETG, reaction rates were fit to the Michaelis-Menten equation using Microsoft Excel using the Solver add-in. To determine Km,GGG and KH, reaction rates were fit to the modified Michaelis-Menten, for which KH is as defined when KH<<Km,GGG.
(§2) Assays to determine eSrtA, eSrtA(2A-9) and eSrtA(4S-9) specificity were performed by preparing 10 μM stocks of Abz-LXEXGK(Dnp) (SEQ ID NO: 75) peptides in 300 mM Tris pH 7.5, 150 mM NaCl, 5 mM CaCl2, 5% v/v DMSO, and 100 mM Gly-Gly-Gly-COOH (GGG). Reactions were performed by adding eSrtA(2A-9) to a final concentration of 450 nM, eSrtA(4S-9) to a final concentration of 115 nM or eSrtA to a final concentration of 47.5 nM and a final volume of 100 μL, then incubating at 22.5° C. for 15 minutes. Reactions were quenched by the addition of 0.2 volumes of 5 M HCl, then were injected onto an analytical reverse-phase Eclipse XDB-C18 HPLC column (4.6×150 mm, 5 μm, Agilent Technologies) and chromatographed using a gradient of 10 to 65% acetonitrile with 0.1% TFA in 0.1% aqueous TFA over 13 minutes. Retention times under these conditions for the Abz-LPETGK(Dnp)-CONH2 (SEQ ID NO: 19) substrate, the released GKDnp peptide, and the Abz-LPETGGG-COOH (SEQ ID NO: 20) product were 12.8, 10.4, and 9.1 min, respectively, while the remaining Abz-LXEXGK(Dnp)-CONH2 (SEQ ID NO: 74) substrates varied in retention time between 9 and 13 minutes. To calculate the percent conversion, the ratio of the integrated areas of the GK(Dnp)-CONH2 and Abz-LPETGK(Dnp)-CONH2 (SEQ ID NO: 19) peptide Abs355 peaks were compared directly. Subsequent determination of kcat/Km and KH were performed as described for in vitro SrtA characterization.
(§3) In each case, rate constants were determined by measuring enzyme velocity at eight different substrate concentrations by HPLC assay, then fit using nonlinear regression to the Michaelis-Menten equation, yielding kcat and Km. KH was calculated by measuring enzyme velocity at 1 mM target substrate and eight different GGG concentrations by HPLC assay, then fitting the resulting curves using nonlinear regression to the modified Michaelis-Menten equation.

[2] = system: LPESG (Abz-LPESGK(Dnp)-CONH2); assay: In vitro sortase kinetics HPLC assay, LPESG substrate; assay type: biochemical; settings: for specificity (relative cat. Efficiency, fold): ratio of kcat/Km between 4S (LPESG) and wt (LPETG) substrates; for kHydrolysis (Hz): 1 mM
Experimental: as §1, §2, §3

mouse tissues = assay: Tissue modification with GGG-Biotin (SA-568 fluorescence)
Experimental: FIG. 10 is a graph showing the relative increase in fluorescence of mouse tissues specifically labeled with GGG-Biotin (detected with SA-568) using a sortase recognizing the LPESG (SEQ ID NO: 3) sortase recognition motif.
Tissue section microarrays were purchased from the BioChain institute (Cat. Z7020001, Lot B508112) and deparaffinized by treatment with 2 changes Xylene for 9 minutes each, 1 change 1:1 Xylene:Ethanol for 3 minutes, 1 change 100% ethanol for 3 minutes, 1 change 90% ethanol for 3 minutes, 1 change 70% ethanol for 3 minutes, 1 change 70% ethanol+0.25% ammonia for 1 hour, 1 change 50% ethanol for 3 minutes, 1 change DI water for 5 minutes. Antigen retrieval was achieved by soaking in 10 mM Citrate pH 6 followed by microwave heating for 2 minutes, then let to rest for 8 minutes. Tissues were washed with 10 mg/mL freshly prepared Sodium borohydride in PBS for 30 minutes on ice, then washed twice with PBS for 3 minutes each.
Slides were blocked in 5% BSA/PBS for 1 hour at room temperature, then 0.001% (w/v) avidin in 5% BSA/PBS for 15 minutes, washed with 5% BSA/PBS, 0.001% (w/v) biotin in 5% BSA/PBS for 15 minutes, washed with 5% BSA/PBS and washed twice in TBS-BC (100 mM TBS, 500 mM NaCl, 0.5% BSA, 5 mM CaCl2) for three minutes. Slides were then treated with 20 uM Enzyme and 200 uM GGG-Biotin for 1 hour at room temperature, washed with 10 mM GGG in 5% BSA/PBS for 3 minutes, then washed twice with 5% BSA/PBS for 3 minutes. Slides were then treated with 2 mg/mL Sudan Black B in 70% EtOH for 30 minutes, washed three times with 5% BSA/PBS, incubated in 5% BSA/PBS+1:250 Streptavidin-568 for 30 minutes, washed 3 times with PBS, incubated with DAPI/PBS for 30 minutes and finally washed 3 times with PBS. Slides were dried, mounted and then visualized by confocal microscopy.
Tissue staining was performed as described previously, with biotin signal false colored in red and DAPI stain false colored in blue. In each case, total integrated biotin signal was computed for both negative control and SrtA+ samples, then background subtracted and used to calculate the total fluorescence enrichment shown in FIG. 10.

[3] = 1 mM 4S (LPESG) substrate, GGG varied
[4] = 1 mM 4S (LPESG) substrate, read-out: Km, GGG
[5] = substrate 4S (LPESG), GGG varied
[6] = substrate 4S (LPESG), read-out: Km, LxExG
[7] = GGG varied, substrate 4S (LPESG)

| Molecule | kcat, 10 mM GGG (Hz) [1] | Km ([1]; read-out: Km, LxExG) | Khydrolysis ([2]; 1 mM 4S (LPESG) substrate) | kcat, 1 mM LxExG (Hz) [2, 3] | Km [2, 4] | specificity (relative cat. Efficiency, fold) [2] | kL/KL/KH ([2]; substrate 4S (LPESG)) | kHydrolysis (Hz) [2, 5] | kcat, 10 mM GGG (Hz) ([2]; substrate 4S (LPESG)) | Km [2, 6] | other results |
| --- | --- | --- | --- | --- | --- | --- | --- | --- | --- | --- | --- |
| B1 | 1.102 Hz | 1290 µM | 179.3 µM | 1.931 Hz | 4950 µM | 11 fold | 5.24E+07 | 0.06696 Hz | 0.9537 Hz | 102 µM | increase in kcat/Km for LPESG as compared to LPETG ([2]; FIG. 2): ~5 fold; labeling of tissue with GGG-Biotin (mouse tissues; bladder tissue): specific labeling; labeling of tissue with GGG-Biotin (mouse tissues; pancreas tissue): specific labeling; labeling of tissue with GGG-Biotin (mouse tissues; prostate tissue): specific labeling; labeling of tissue with GGG-Biotin (mouse tissues; small intestine tissue): specific labeling; labeling of tissue with GGG-Biotin (mouse tissues; spleen tissue): specific labeling; labeling of tissue with GGG-Biotin (mouse tissues; testis tissue): specific labeling; labeling of tissue with GGG-Biotin (mouse tissues; uterus tissue): specific labeling |
| B2 |  |  |  |  |  |  |  |  |  |  | Avg kcat (Hz) ([1]; Example 5 variants): 0.9657 Hz; Km ([1]; Example 5 variants, read-out: Avg KM): 1040 µM; Avg kcat (Hz) ([2]; Example 5 variants, substrate 4S (LPESG)): 0.9425 Hz; Km ([2]; Example 5 variants, substrate 4S (LPESG), read-out: Avg KM): 125 µM; Avg kHydro (Hz) [2, 7]: 0.01782 Hz; Avg kcat (Hz) [2, 7]: 2.004 Hz; Km ([2]; KM for GGG, substrate 4S (LPESG), read-out: Avg KM): 13100 µM; KH (KH,LPESG) ([2]; LPESG substrate): 116 ± 10 µM; Specificity ([2]; ratio of kcat/KM, 4S (LPESG) over wt (LPETG)): 8.094; Avg KH ([2]; substrate 4S (LPESG)): 116.3542 µM |
| B3 | 0.003663 Hz | 16.1 µM | 334.1 µM | 1.502 Hz | 36000 µM | 18.52 fold | 1.30E+07 | 0.01399 Hz | 0.6657 Hz | 156 µM |  |
